In patent US20190169232A1:

Key:
[1] = biological target: C1q purified from pooled normal human sera (human) (UniProt P02746); experiment: SPR kinetics, C1q immobilised on a CM5 chip, HMGB1 redox form as analyte in a concentration series, 1:1 fit
[2] = biological target: LAIR-1 on human monocytes (human) (UniProt Q6GTX8); experiment: co-immunoprecipitation from human monocytes, IP anti-LAIR-1, blot anti-SHP-1; cells treated with C1q and HMGB1
[3] = biological target: LAIR-1 on human monocytes (human) (UniProt Q6GTX8); experiment: co-immunoprecipitation from human monocytes, IP anti-LAIR-1, blot anti-SHP-1; cells treated with C1q alone
[4] = biological target: LAIR-1 on human monocytes (human) (UniProt Q6GTX8); experiment: co-immunoprecipitation from human monocytes, IP anti-LAIR-1, blot anti-SHP-1; cells treated with HMGB1 alone
[5] = biological target: LAIR-1 on human monocytes (human) (UniProt Q6GTX8); experiment: co-immunoprecipitation from human monocytes, IP anti-LAIR-1, blot anti-SHP-1; cells without C1q and without HMGB1

Sequence of LAIR-1 on human monocytes (human) (Q6GTX8 22-287): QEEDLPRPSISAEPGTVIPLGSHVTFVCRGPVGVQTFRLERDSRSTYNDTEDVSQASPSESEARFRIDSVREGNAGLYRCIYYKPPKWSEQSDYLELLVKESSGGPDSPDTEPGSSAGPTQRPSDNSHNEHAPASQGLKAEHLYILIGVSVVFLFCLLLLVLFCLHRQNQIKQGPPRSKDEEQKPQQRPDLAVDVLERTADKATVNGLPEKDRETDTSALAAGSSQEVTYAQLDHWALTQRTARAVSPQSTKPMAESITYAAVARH
Sequence of C1q purified from pooled normal human sera (human) (chain, as listed by the source, chain 1 of 3): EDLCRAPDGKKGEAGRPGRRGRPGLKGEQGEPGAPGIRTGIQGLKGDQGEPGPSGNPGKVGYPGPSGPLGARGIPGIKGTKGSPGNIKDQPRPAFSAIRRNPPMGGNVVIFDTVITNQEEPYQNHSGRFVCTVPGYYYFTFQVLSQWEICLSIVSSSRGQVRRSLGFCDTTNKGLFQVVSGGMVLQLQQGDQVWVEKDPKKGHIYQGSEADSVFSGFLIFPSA
Sequence of C1q purified from pooled normal human sera (human) (P02746 28-253, chain 2 of 3): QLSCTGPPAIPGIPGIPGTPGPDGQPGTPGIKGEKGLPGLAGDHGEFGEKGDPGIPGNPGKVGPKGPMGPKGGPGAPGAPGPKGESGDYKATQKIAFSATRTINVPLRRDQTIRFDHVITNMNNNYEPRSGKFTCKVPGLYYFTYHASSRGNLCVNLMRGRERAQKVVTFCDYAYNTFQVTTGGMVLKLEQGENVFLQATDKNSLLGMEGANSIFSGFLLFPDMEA
Sequence of C1q purified from pooled normal human sera (human) (P02747 29-245, chain 3 of 3): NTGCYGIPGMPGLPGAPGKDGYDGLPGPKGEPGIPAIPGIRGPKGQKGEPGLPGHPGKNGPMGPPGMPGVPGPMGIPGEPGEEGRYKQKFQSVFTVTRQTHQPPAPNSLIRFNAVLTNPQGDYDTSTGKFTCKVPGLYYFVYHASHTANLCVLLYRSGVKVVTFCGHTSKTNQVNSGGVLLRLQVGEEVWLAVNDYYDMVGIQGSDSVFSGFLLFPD
Sequence of Oxidized HMGB1 (ligand) (P09429 whole entry): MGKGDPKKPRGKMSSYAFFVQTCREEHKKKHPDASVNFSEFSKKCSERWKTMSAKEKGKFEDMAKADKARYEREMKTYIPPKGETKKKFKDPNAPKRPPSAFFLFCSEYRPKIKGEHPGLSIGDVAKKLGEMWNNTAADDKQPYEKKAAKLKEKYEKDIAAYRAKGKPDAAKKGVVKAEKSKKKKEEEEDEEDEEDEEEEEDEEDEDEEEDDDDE

Oxidized HMGB1 (ligand)
Kd [1]: 1.56 µM

SHP-1 (from UniProt P29350 1-595)
signal intensity ratio (number under the SHP-1 blot) [2]: 4.4
signal intensity ratio (number under the SHP-1 blot) [3]: 2.6
signal intensity ratio (number under the SHP-1 blot) [4]: 0.7
signal intensity ratio (number under the SHP-1 blot) [5]: 1
